Source: the supplement of paper PMC5998384

Key:
[1] = tested on: HeLa Kyoto; test: solubility change mitosis vs G1/S (difference of NP-40 vs SDS log2 ratios) (log2 ratio difference); higher = more soluble in mitosis
[2] = tested on: HeLa Kyoto; test: solubility in G1/S (NP-40 vs SDS abundance) (log2 ratio); higher = more soluble; details: cell cycle stage: G1/S
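Wherever solubility change mitosis vs G1/S (difference of NP-40 vs SDS log2 ratios) is given: synchronized HeLa Kyoto cells (double thymidine block for G1/S, nocodazole release for mitosis), protein amounts in NP-40 versus SDS lysates quantified by mass spectrometry, three biological replicates.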
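Wherever solubility in G1/S (NP-40 vs SDS abundance) is given: HeLa Kyoto cells arrested at G1/S by double thymidine block, proteins quantified by TMT10plex mass spectrometry in mild NP-40 versus SDS extracts, three biological replicates.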

| Substance | solubility change mitosis (log2) [1] | solubility in G1/S (log2) [2] |
| --- | --- | --- |
| MANETQKVGAIHFPFPFTPYSIQEDFMAELYRVLEAGKIGIFESPTGTGKSLSLICGALSWLRDFEQKKREEEARLLETGTGPLHDEKDESLCLSSSCEGAAGTPRPAGEPAWVTQFVQKKEERDLVDRLKAEQARRKQREERLQQLQHRVQLKYAAKRLRQEEEERENLLRLSREMLETGPEAERLEQLESGEEELVLAEYESDEEKKVASRVDEDEDDLEEEHITKIYYCSRTHSQLAQFVHEVKKSPFGKDVRLVSLGSRQNLCVNEDVKSLGSVQLINDRCVDMQRSRHEKKKGAEEEKPKRRRQEKQAACPFYNHEQMGLLRDEALAEVKDMEQLLALGKEARACPYYGSRLAIPAAQLVVLPYQMLLHAATRQAAGIRLQDQVVIIDEAHNLIDTITGMHSVEVSGSQLCQAHSQLLQYVERYGKRLKAKNLMYLKQILYLLEKFVAVLGGNIKQNPNTQSLSQTGTELKTINDFLFQSQIDNINLFKVQRYCEKSMISRKLFGFTERYGAVFSSREQPKLAGFQQFLQSLQPRTTEALAAPADESQASTLRPASPLMHIQGFLAALTTANQDGRVILSRQGSLSQSTLKFLLLNPAVHFAQVVKECRAVVIAGGTMQPVSDFRQQLLACAGVEAERVVEFSCGHVIPPDNILPLVICSGISNQPLEFTFQKRELPQMMDEVGRILCNLCGVVPGGVVCFFPSYEYLRQVHAHWEKGGLLGRLAARKKIFQEPKSAHQVEQVLLAYSRCIQACGQERGQVTGALLLSVVGGKMSEGINFSDNLGRCVVMVGMPFPNIRSAELQEKMAYLDQTLSPRPGTPREGSGGEPVHEGRQPVHRQGHQAPEGFCQRSAPGPAICPAPCPGQAAGLDPSPCGGQSYLWPRHCCCAEVSPGEVGLFLMGNHTTAWRRALPLSCPLETVFVVGVVCGDPVTKVKPRRRVWSPECCQDPGTGVSSRRRKWGNPE [DDX11] | -0.0575 | -0.119 |
| MAP3K1 | -0.131 | -0.0921 |
| MAPALLLIPAALASFILAFGTGVEFVRFTSLRPLLGGIPESGGPDARQGWLAALQDRSILAPLAWDLGLLLLFVGQHSLMAAERVKAWTSRYFGVLQRSLYVACTALALQLVMRYWEPIPKGPVLWEARAEPWATWVPLLCFVLHVISWLLIFSILLVFDYAELMGLKQVYYHVLGLGEPLALKSPRALRLFSHLRHPVCVELLTVLWVVPTLGTDRLLLAFLLTLYLGLAHGLDQQDLRYLRAQLQRKLHLLSRPQDGEAE [NRM] | 0.167 | -0.275 |
| MAPDPWFSTYDSTCQIAQEIAEKIQQRNQYERKGEKAPKLTVTIRALLQNLKEKIALLKDLLLRAVSTHQITQLEGDRRQNLLDDLVTRERLLLASFKNEGAEPDLIRSSLMSEEAKRGAPNPWLFEEPEETRGLGFDEIRQQQQKIIQEQDAGLDALSSIISRQKQMGQEIGNELDEQNEIIDDLANLVENTDEKLRNETRRVNMVDRKSASCGMIMVILLLLVAIVVVAVWPTN [STX8] | -0.0243 | 0.624 |
| MAPVRRSAKWRPGGIEARGEGVSTVGYRNKNVRQKTWRPNHPQAFVGSVREGQGFAFRRKLKIQQSYKKLLRKEKKAQTSLESQFTDRYPDNLKHLYLAEEERHRKQARKVDHPLSEQVHQPLLEEQCSIDEPLFEDQCSFDQPQPEEQCIKTVNSFTIPKKNKKKTSNQKAQEEYEQIQAKRAAKKQEFERRKQEREEAQRQYKKKKMEVFKILNKKTKKGQPNLNVQMEYLLQKIQEKC [CCDC59] | 0.278 | -0.512 |
| MARLTKRRQADTKAIQHLWAAIEIIRNQKQIANIDRITKYMSRVHGMHPKETTRQLSLAVKDGLIVETLTVGCKGSKAGIEQEGYWLPGDEIDWETENHDWYCFECHLPGEVLICDLCFRVYHSKCLSDEFRLRDSSSPWQCPVCRSIKKKNTNKQEMGTYLRFIVSRMKERAIDLNKKGKDNKHPMYRRLVHSAVDVPTIQEKVNEGKYRSYEEFKADAQLLLHNTVIFYGADSEQADIARMLYKDTCHELDELQLCKNCFYLSNARPDNWFCYPCIPNHELVWAKMKGFGFWPAKVMQKEDNQVDVRFFGHHHQRAWIPSENIQDITVNIHRLHVKRSMGWKKACDELELHQRFLREGRFWKSKNEDRGEEEAESSISSTSNEQLKVTQEPRAKKGRRNQSVEPKKEEPEPETEAVSSSQEIPTMPQPIEKVSVSTQTKKLSASSPRMLHRSTQTTNDGVCQSMCHDKYTKIFNDFKDRMKSDHKRETERVVREALEKLRSEMEEEKRQAVNKAVANMQGEMDRKCKQVKEKCKEEFVEEIKKLATQHKQLISQTKKKQWCYNCEEEAMYHCCWNTSYCSIKCQQEHWHAEHKRTCRRKR [ZMYND11] | 0.83 | -2.1 |
| MARTLEPLAKKIFKGVLVAELVGVFGAYFLFSKMHTSQDFRQTMSKKYPFILEVYYKSTEKSGMYGIRELDQKTWLNSKN [CEBPZOS] | -0.012 | -0.306 |
| MASASARGNQDKDAHFPPPSKQSLLFCPKSKLHIHRAEISKIMRECQEESFWKRALPFSLVSMLVTQGLVYQGYLAANSRFGSLPKVALAGLLGFGLGKVSYIGVCQSKFHFFEDQLRGAGFGPQHNRHCLLTCEECKIKHGLSEKGDSQPSAS [OCIAD2] | -0.0442 | 0.0856 |
| MASKRKSTTPCMIPVKTVVLQDASMEAQPAETLPEGPQQDLPPEASAASSEAAQNPSSTDGSTLANGHRSTLDGYLYSCKYCDFRSHDMTQFVGHMNSEHTDFNKDPTFVCSGCSFLAKTPEGLSLHNATCHSGEASFVWNVAKPDNHVVVEQSIPESTSTPDLAGEPSAEGADGQAEIIITKTPIMKIMKGKAEAKKIHTLKENVPSQPVGEALPKLSTGEMEVREGDHSFINGAVPVSQASASSAKNPHAANGPLIGTVPVLPAGIAQFLSLQQQPPVHAQHHVHQPLPTAKALPKVMIPLSSIPTYNAAMDSNSFLKNSFHKFPYPTKAELCYLTVVTKYPEEQLKIWFTAQRLKQGISWSPEEIEDARKKMFNTVIQSVPQPTITVLNTPLVASAGNVQHLIQAALPGHVVGQPEGTGGGLLVTQPLMANGLQATSSPLPLTVTSVPKQPGVAPINTVCSNTTSAVKVVNAAQSLLTACPSITSQAFLDASIYKNKKSHEQLSALKGSFCRNQFPGQSEVEHLTKVTGLSTREVRKWFSDRRYHCRNLKGSRAMIPGDHSSIIIDSVPEVSFSPSSKVPEVTCIPTTATLATHPSAKRQSWHQTPDFTPTKYKERAPEQLRALESSFAQNPLPLDEELDRLRSETKMTRREIDSWFSERRKKVNAEETKKAEENASQEEEEAAEDEGGEEDLASELRVSGENGSLEMPSSHILAERKVSPIKINLKNLRVTEANGRNEIPGLGACDPEDDESNKLAEQLPGKVSCKKTAQQRHLLRQLFVQTQWPSNQDYDSIMAQTGLPRPEVVRWFGDSRYALKNGQLKWYEDYKRGNFPPGLLVIAPGNRELLQDYYMTHKMLYEEDLQNLCDKTQMSSQQVKQWFAEKMGEETRAVADTGSEDQGPGTGELTAVHKGMGDTYSEVSENSESWEPRVPEASSEPFDTSSPQAGRQLETD [ZHX3] | -0.0607 | 0.105 |
| MASNFKKANMASSSQRKRMSPKPELTEEQKQEIREAFDLFDADGTGTIDVKELKVAMRALGFEPKKEEIKKMISEIDKEGTGKMNFGDFLTVMTQKMSEKDTKEEILKAFKLFDDDETGKISFKNLKRVAKELGENLTDEELQEMIDEADRDGDGEVSEQEFLRIMKKTSLY [CETN2] | 0.68 | 0.117 |
| MASPEPRRGGDGAAQAARKTRVEANSPLPKNSGSLNEAEALNPEVTLSSEGSLNLEDILYLEDTGDLDETLYVQETEKAEEALYIEEAMQPDEALHVEEPGNPEETVCVEETTEPDRIQFVEGPVEPGKPTSPEHVVYEGETVTRAEKSNPEESLRAEQSPSMEENLSIEDLELLEGRFQQCVQAVAQLEEERDQLIHELVLLREPALQEVQQVHQDILAAYKLHAQAELERDGLREEIRLVKQKLFKVTKECVAYQYQLECRQQDVAQFADFREVLTTRATQLSEELAQLRDAYQKQKEQLRQQLEAPPSQRDGHFLQESRRLSAQFENLMAESRQDLEEEYEPQFLRLLERKEAGTKALQRTQAEIQEMKEALRPLQAEARQLRLQNRNLEDQIALVRQKRDEEVQQYREQLEEMEERQRQLRNGVQLQQQKNKEMEQLRLSLAEELSTYKAMLLPKSLEQADAPTSQAGGMETQSQGAV [SYNC] | 0.0968 | 0.502 |
| MASRWQNMGTSVRRRSLQHQEQLEDSKELQPVVSHQETSVGALGSLCRQFQRRLPLRAVNLNLRAGPSWKRLETPEPGQQGLQAAARSAKSALGAVSQRIQESCQSGTKWLVETQVKARRRKRGAQKGSGSPTHSLSQKSTRLSGAAPAHSAADPWEKEHHRLSVRMGSHAHPLRRSRREAAFRSPYSSTEPLCSPSESDSDLEPVGAGIQHLQKLSQELDEAIMAEERKQALSDRQGFILKDVYASP [FAM64A] | 0.481 | 0.000622 |
| MASSDLEQLCSHVNEKIGNIKKTLSLRNCGQEPTLKTVLNKIGDEIIVINELLNKLELEIQYQEQTNNSLKELCESLEEDYKDIEHLKENVPSHLPQVTVTQSCVKGSDLDPEEPIKVEEPEPVKKPPKEQRSIKEMPFITCDEFNGVPSYMKSRLTYNQINDVIKEINKAVISKYKILHQPKKSMNSVTRNLYHRFIDEETKDTKGRYFIVEADIKEFTTLKADKKFHVLLNILRHCRRLSEVRGGGLTRYVIT [SKA1] | -0.0548 | 0.713 |
| MASSEVARHLLFQSHMATKTTCMSSQGSDDEQIKRENIRSLTMSGHVGFESLPDQLVNRSIQQGFCFNILCVGETGIGKSTLIDTLFNTNFEDYESSHFCPNVKLKAQTYELQESNVQLKLTIVNTVGFGDQINKEESYQPIVDYIDAQFEAYLQEELKIKRSLFTYHDSRIHVCLYFISPTGHSLKTLDLLTMKNLDSKVNIIPVIAKADTVSKTELQKFKIKLMSELVSNGVQIYQFPTDDDTIAKVNAAMNGQLPFAVVGSMDEVKVGNKMVKARQYPWGVVQVENENHCDFVKLREMLICTNMEDLREQTHTRHYELYRRCKLEEMGFTDVGPENKPVSVQETYEAKRHEFHGERQRKEEEMKQMFVQRVKEKEAILKEAERELQAKFEHLKRLHQEERMKLEEKRRLLEEEIIAFSKKKATSEIFHSQSFLATGSNLRKDKDRKNSNFL [SEPT10] | -0.0981 | -0.132 |
| MASSSGSSPRPAPDENEFPFGCPPTVCQDPKEPRALCCAGCLSENPRNGEDQICPKCRGEDLQSISPGSRLRTQEKAHPEVAEAGIGCPFAGVGCSFKGSPQSVQEHEVTSQTSHLNLLLGFMKQWKARLGCGLESGPMALEQNLSDLQLQAAVEVAGDLEVDCYRAPCSESQEELALQHFMKEKLLAELEGKLRVFENIVAVLNKEVEASHLALATSIHQSQLDRERILSLEQRVVELQQTLAQKDQALGKLEQSLRLMEEASFDGTFLWKITNVTRRCHESACGRTVSLFSPAFYTAKYGYKLCLRLYLNGDGTGKRTHLSLFIVIMRGEYDALLPWPFRNKVTFMLLDQNNREHAIDAFRPDLSSASFQRPQSETNVASGCPLFFPLSKLQSPKHAYVKDDTMFLKCIVETST [TRAF1] | -0.305 | 0.254 |
